Experimental findings from the supplement of paper PMC10567573 are described below.

± gives the standard deviation.

The nature of this data set: protein stability index of a GFP-peptide fusion (GPS, HEK-293T) (PSI 1-6); higher = more stable.
Where [1] appears, read: treatment: DMSO, c terminus: a fixed tail appended.
[2] abbreviates: treatment: MLN4924 1 uM, 8 h, c terminus: a fixed tail appended.
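Also: 24-mer peptide tiles fused after GFP, lentivirally expressed, FACS-sorted into six equal bins by GFP/DsRed ratio, decoded by Illumina sequencing, PSI is the read-weighted mean bin number.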

As for FCQMLAVVETINAAIGVTTSPVLP [HACD3], the protein stability index by setting is: under setting [1], 2.69 ± 0.4; under setting [2], 2.54 ± 0.23.

FDAALVSFINFFTSVLATLVVFAV [SLC6A17]: the protein stability index is 3.44 ± 0.4 under setting [1] and 3.44 ± 0.97 under setting [2].

FEDAKEKMREFTKTIKRPFGVKYN [TPH1] displayed a protein stability index under setting [1] of 2.9 ± 0.21 and a protein stability index under setting [2] of 3.1 ± 0.26.

For FEGRTPMHVACQHGQENIVRILLR [RIPK4], the protein stability index amounted to 2.95 ± 0.49 under setting [1] and 2.95 ± 0.2 under setting [2].

Consider FELEDSNEIFTQLYRTLFSVINNG [PDS5B], for which the protein stability index by setting is: under setting [1], 2.15 ± 0.47; under setting [2], 2.41 ± 0.23.

With FENGQKAAVVHHFESFPAGSTLIF [TOR1AIP2], the protein stability index worked out at 2.05 ± 0.42 under setting [1] and 2.12 ± 0.2 under setting [2].

As for FEQTPALTKHEWTEALGCDPPLSQ [ZNF8], the protein stability index is, setting by setting: under setting [1], 4.56 ± 0.26; under setting [2], 4.6 ± 0.13.

For FHIMKRKFTNKEWETIRSFKDEWT [AASDHPPT], the protein stability index under setting [2] was 2.09 ± 0.16.

Turning to FIFTFVKKKKIGFYFEVCGMMVES [PCDHGA10], the protein stability index under setting [1] was 3.34 ± 0.57.

In turn, FKDSAGKSPTGLKLKNDTENHQPV [ZNF75A] showed a protein stability index under setting [1] of 4.88 ± 0.22 and a protein stability index under setting [2] of 5.03 ± 0.18.

In turn, FKWYLENVYPEMRVYNNTLTYGEV [GALNT9] displayed a protein stability index under setting [1] of 2.38 ± 0.48 and a protein stability index under setting [2] of 2.43 ± 0.35.

For the sequence FLEALSSRYLGDSGLDDFFLDIDT [SERTAD3], the protein stability index was determined as 2.4 ± 0.4 under setting [1] and 2.41 ± 0.39 under setting [2].

As for FLIGAYAVIYLKKTPEEAYRALLS [CDC14A], the protein stability index was determined as 2.71 ± 0.8 under setting [1] and 2.7 ± 0.6 under setting [2].

For the sequence FLLLYLFTLGTNAIIISTIVLDRA [OR10K2], the protein stability index amounted to 3.39 ± 0.28 under setting [1] and 3.23 ± 0.53 under setting [2].

FLSYYRLTRFLSRVIKCDPDCLRA [CCND1]: the protein stability index runs as follows: under setting [1], 2.23 ± 0.56; under setting [2], 2.25 ± 0.54.

For FLYSHGVPRTLSPHQYHSVHGVGM [TBX5], the protein stability index runs as follows: under setting [1], 2.31 ± 0.38; under setting [2], 2 ± 0.24.

As for FMEKRNQWLVSQLSAASPDTGHDS [TRAF3IP2], the protein stability index is 2.76 ± 0.34 under setting [1] and 3.21 ± 0.58 under setting [2].

For the sequence FNEQTWEVSQQDPSHGEVGEHKDR [ZSCAN9], the protein stability index runs as follows: under setting [1], 5.38 ± 0.26; under setting [2], 5.35 ± 0.17.

For the sequence FQILKYLFQIDVYDFMNSAFSPIV [MIA2], the protein stability index by setting is: under setting [1], 2.75 ± 0.038; under setting [2], 2.85 ± 1.

FQIYDKEASGYVDRDMFFKICESL [EFHC1]: the protein stability index reads like this: under setting [1], 2.29 ± 0.15; under setting [2], 2.5 ± 0.15.

With FQMEKIEHGYENMNHFTVNLNREE [TRIM55], the protein stability index came to 3.21 ± 0.47 under setting [1] and 3.57 ± 0.59 under setting [2].

FRNIKQEPFSARVLVLCVFNSILP [SOAT1]: the protein stability index runs as follows: under setting [1], 2.9 ± 0.35; under setting [2], 2.87 ± 0.59.

Regarding FRRAPSWRKRFRPREHHGRGGMLS [PPFIA4], the protein stability index worked out at 3.11 ± 0.27 under setting [1] and 3.99 ± 0.078 under setting [2].

Regarding FRRGEKLRVISDEGGWWKAISLST [SLA], the protein stability index reads like this: under setting [1], 3.3 ± 1.1; under setting [2], 2.13 ± 0.72.

On to FSFLGLLALGVSLLCNAITGITLL [PTGFR], for which the protein stability index runs as follows: under setting [1], 2.77 ± 0.31; under setting [2], 3.09 ± 0.98.

With FSRENLSKDLYLISQMDSDQFIPI [LARP4], the protein stability index is 2.17 ± 0.45 under setting [1] and 2.13 ± 0.36 under setting [2].

Consider FSTGIKMGQHISLAPIHKLEEALY [MNAT1], for which the protein stability index is, setting by setting: under setting [1], 2.28 ± 0.48; under setting [2], 2.08 ± 0.26.

FSTYTSDKDENKLSEASGGRAENG [ZC3H15] yielded a protein stability index under setting [1] of 5.38 ± 0.44 and a protein stability index under setting [2] of 5.23 ± 0.58.

Consider FTNCYIYNKPTDDIVLMAQALEKI [BRD3], for which the protein stability index is, setting by setting: under setting [1], 2.43 ± 0.45; under setting [2], 1.97 ± 0.12.

For FTQPLLPAFTVWCGSFQVTTGLQV [FSD1], the protein stability index was 3 ± 0.12 under setting [1] and 3.03 ± 0.5 under setting [2].

For FTVRPDVTQNSTAEPSRFSSSDSD [FCHO1], the protein stability index under setting [1] was 5.09 ± 0.32 and the protein stability index under setting [2] is 5.06 ± 0.14.

For the sequence FVEEIKKLATQHKQLISQTKKKQW [ZMYND11], the protein stability index by setting is: under setting [1], 2.73 ± 0.77; under setting [2], 2.13 ± 0.33.

In the case of FVGAGRMAGAIAQGLIRAGKVEAQ [PYCR3], the protein stability index reads like this: under setting [1], 2.96 ± 0.52; under setting [2], 2.9 ± 0.33.

As to FVHELHLSRLQRVKFCLLGALLAP [LPCAT4], the protein stability index reads like this: under setting [1], 2.41 ± 0.71; under setting [2], 2.06 ± 0.34.

Regarding FVLDENDNAPAVLHPRPDWEHSAP [PCDHGC5], the protein stability index by setting is: under setting [1], 3.33 ± 0.22; under setting [2], 3.62 ± 0.31.

In turn, FVLNRLQYAIISEAWRLVEEGIVS [CRYL1] had a protein stability index under setting [1] of 3.17 ± 0.66 and a protein stability index under setting [2] of 3.09 ± 0.24.

For the sequence FVQREEQLQFLIRYHRFISFALYL [CDS1], the protein stability index under setting [1] was 2.4 ± 0.68 and the protein stability index under setting [2] turned out to be 2.68 ± 0.9.

As to FYQLVWSALPFITYLENKGHRYPC [POP5], the protein stability index under setting [1] was determined as 2.88 ± 0.69 and the protein stability index under setting [2] was determined as 3.09 ± 0.53.

In the case of GAAAQGQTQTVAAQAQALAAQAAA [PI4K2A], the protein stability index was 5.07 ± 0.21 under setting [1] and 4.95 ± 0.21 under setting [2].

Turning to GACIVNSENKIVGIGYNGMPNGCS [DCTD], the protein stability index is 3.04 ± 0.33 under setting [1] and 3.21 ± 0.43 under setting [2].

GALETRSLKDHKVSFLRSGTKLIF [C2CD2L] had a protein stability index under setting [1] of 2.13 ± 0.24 and a protein stability index under setting [2] of 2.1 ± 0.42.

On to GANKEVQELLERGLLQLDHRGLRC [RSAD1], for which the protein stability index was 3.39 ± 0.12 under setting [1] and 3.66 ± 0.31 under setting [2].

In the case of GCGADSKKKRPPQPPEESQPPQSQ [PLK2], the protein stability index under setting [1] was found to be 5.52 ± 0.35 and the protein stability index under setting [2] turned out to be 5.53 ± 0.18.

As to GCGYGCQLHHVVYCFMIAYGTQRT [FUT8], the protein stability index turned out to be 3.19 ± 0.45 under setting [1] and 3.06 ± 0.57 under setting [2].

As for GCLGHGSLTDISQPTIVEALLGYE [NEK8], the protein stability index is 3.1 ± 0.11 under setting [1] and 3.18 ± 0.4 under setting [2].

As for GDFWRMIWEQRSATVVMMTKLEER [PTPRD], the protein stability index runs as follows: under setting [1], 2.77 ± 0.38; under setting [2], 2.36 ± 0.18.

Regarding GDIIRLEHKETSRNLHSHYHEAPM [POMT2], the protein stability index is, setting by setting: under setting [1], 3.35 ± 0.13; under setting [2], 3.57 ± 0.12.

Turning to GDSASEEKSGSAEPFVLPASSVES [FBXO34], the protein stability index runs as follows: under setting [1], 5.39 ± 0.33; under setting [2], 5.42 ± 0.42.

As for GEALGRDHSEHLSGSSYRDALQRY [RBMY1A1], the protein stability index is 4.33 ± 0.22 under setting [1] and 4.26 ± 0.29 under setting [2].

Take GEDCKLPPQPCATACKPVIRVPSV [KRT36]: the protein stability index by setting is: under setting [1], 3.3 ± 0.22; under setting [2], 3.23 ± 0.22.

In the case of GENSDCHRDSSQAIPITELTKSQV [ZNF8], the protein stability index by setting is: under setting [1], 4.94 ± 0.12; under setting [2], 5.29 ± 0.23.

As for GERPEEGVAGGLNRNQGLNRLMLA [TCF25], the protein stability index reads like this: under setting [1], 3.88 ± 0.44; under setting [2], 4.02 ± 0.47.

For GFGILGHSQNLAKQQRNEVSFVIH [SEPHS2], the protein stability index is 2.25 ± 0.47 under setting [1] and 2.32 ± 0.32 under setting [2].

As for GFSSGRHRWQVDLQLGDGGGCTVG [TRIM15], the protein stability index came to 2.93 ± 0.29 under setting [1] and 3.07 ± 0.27 under setting [2].

GFTSYLGFGDEDTGLELIAEESNP [MIA2]: the protein stability index under setting [1] was found to be 4.61 ± 0.22.

For GGGREPQGLAEKSPLQTIGEEQTQ [WDR41], the protein stability index runs as follows: under setting [1], 5.31 ± 0.26; under setting [2], 5.58 ± 0.17.

Regarding GGIIAPFIPSLKYVQWSLPFIVFG [SLC22A15], the protein stability index by setting is: under setting [1], 2.75 ± 0.39; under setting [2], 2.86 ± 0.32.

GGQDSFESIESYDSCDRLTQSWSS [ETS1]: the protein stability index turned out to be 3.68 ± 0.67 under setting [1] and 3.84 ± 0.3 under setting [2].

Turning to GIREASSGGGGSSSNFHINVEESV [KRT15], the protein stability index under setting [1] turned out to be 4.92 ± 0.18 and the protein stability index under setting [2] came to 5.11 ± 0.28.

With GKPLYLIFRNLCQMQEDNSSFSLL [INTS3], the protein stability index reads like this: under setting [1], 2.37 ± 0.41; under setting [2], 2.28 ± 0.38.

Take GKRPSQEEDTQSIGPKVQRQSTN [CRY1]: the protein stability index was 5.35 ± 0.28 (treatment: DMSO, c terminus: native) and 5.45 ± 0.11 (treatment: MLN4924 1 uM, 8 h, c terminus: native).

Sequence GKSFSQNTNLHTHQRTHTGEKPFT [ZNF75A] yielded a protein stability index under setting [1] of 4.01 ± 0.28 and a protein stability index under setting [2] of 4.25 ± 0.35.

Take GKTPVCHQCHKVIRGRYLVALGHA [PDLIM7]: the protein stability index is, setting by setting: under setting [1], 2.1 ± 0.1; under setting [2], 2.72 ± 0.33.

As for GLALESSSGLQDVTGPDNGVRESE [NFE2L1], the protein stability index is, setting by setting: under setting [1], 5.57 ± 0.36; under setting [2], 5.53 ± 0.28.

In the case of GLALGGGLELALACDIRVAASSAK [AUH], the protein stability index reads like this: under setting [1], 2.67 ± 0.4; under setting [2], 2.9 ± 0.23.

Regarding GLKKLNLHEEEHVLLMAICIVSPD [VDR], the protein stability index turned out to be 3.13 ± 0.57 under setting [1] and 2.83 ± 0.54 under setting [2].

For GLRRVLDELTLARTDLEMQIEGLN [KRT15], the protein stability index turned out to be 2.71 ± 0.3 under setting [1] and 2.66 ± 0.19 under setting [2].

In the case of GLSIPSHSSELTEQKLRACLEGSI [RPAIN], the protein stability index under setting [1] stood at 3.63 ± 0.39 and the protein stability index under setting [2] is 3.53 ± 0.24.

In the case of GLSLTDESDSCVSFEAPLTPLIQQ [PSD2], the protein stability index was 4.29 ± 0.35 under setting [1] and 4.15 ± 0.29 under setting [2].

GNEEEESKIFTTLDPASLAWLTEE [DDIT3]: the protein stability index is, setting by setting: under setting [1], 5.06 ± 0.2; under setting [2], 5.09 ± 0.14.

In the case of GNGVHVCNVKYKRWALLSCRGKKP [KLHDC10], the protein stability index reads like this: under setting [1], 2.73 ± 0.35; under setting [2], 2.94 ± 0.27.

For GNLNIHQRTHTGEKPYGCIDCGKA [ZNF649], the protein stability index worked out at 3.96 ± 0.38 under setting [1] and 4.14 ± 0.4 under setting [2].

With GNRINVPMVRKRSVSNSTQTSSSS [DLC1], the protein stability index turned out to be 4.44 ± 0.13 under setting [1] and 4.65 ± 0.2 under setting [2].
